Measured values as given in the DeepSol protein solubility set.

Experiment: soluble on expression in E. coli; label from the status in PepcDB or PDB records

Sequence	soluble on expression in E. coli
MGSDKIHHHHHHMRLDEYISRDIAWCPGCGNFGIRTALMKALEELNVDPRQVVIVSGIGQAAKMPQYVGVNMFNGLHGRALPVATAIKTTNPNLLVIAESGDGCMYGEGGNHFIHTIRRNPDIVNIVHDNQVYGLTKGQASPTSLKGFKTPVQVDGVILEPFNPLAVAIALDASFVARTFIGDIEFTKDILKEAMKHKGYALVDILQPCVTFNKLNTYEWYRENTYYLKDHDPTDRELAFKRAIETEKLPLGIFYVNKNKETFEELARKGDRTPLYEYEVNFEKLKELIESKKS	not soluble
MGSDKIHHHHHHMRLDTLSKTGGGVQEALSGSVRLYSEVLNREVEVPETPRRIVSLSPAITETLYMLGLEDRIAGVSVYDHKPPKAREKPKVGSYYKVNMKLLEQLNPDLILVTTGAQRRILEDLSRRYPVYPIPLPVSVSGIIDQAVQVGIVTGALEEASRLETELLDKASKLRGAGRGLRIYYEVYLGGPVTAGAHTYISDAFRIAGVETPFMSERTTWIYQPPPERINRFKPQFILYEYSAYAPTTAEKVRGELEARGVDVGSAELVLLEPDTLAHYGPSFIDTMLDLLKTLRDKAGLG	not soluble
MGSDKIHHHHHHMRLFRKEPKAEQLKVIIIGAGEVGYHIAHRLTRENKQVVVVDQQPEALRRVAEALDVQTIRGSGSSPVVLHDAGAEDADIILAVTDSDEINIIACLFANIISPASTKLARIRNEEYTLYRDALAQDILNISMIINPEVEVVKNIDRLLSLPGAVDYSEFADGRIRMVGMRICSGPLVGVRLMNFRTVISDGDVIIAAIVRNDELIIPTGMDEIRADDVVYFVCTESSLESVRNVVAALEDPIRSALIVGGGNIGMRLATLFERKGYHTKLVDRDEERCAVLAEKLNSTIVLHGDGTDQDLLREENAGTMDAVVCLTSDEETNILCSLLAKNMGVRKTVARINKVAYQPLVRAIGIEHSVSPRLSAVNSILHYIRKGKVLSSVAIRGEEAEVMEALAEAQSDIVGRPIHKLSFPKGALVLALVRGTEVVIPSGDTVIEPQDRILILSTRQAVSDVEQALMVKLKAY	not soluble
MGSDKIHHHHHHMRLFSKLFNIRDNTVVERPRSLTGEGIAAKTQTRVAEKISSTPNDTDTVAAPTVDVAALFYSLLFATSHKDTGGIANNLEKRLIGNVESALADPKVIAEKVFKLPHDLIELDKQLANPEVDTEEVIALIKRDPVLSAEVIQLCNAPAFHRGAKDITSLQQAVVILGREQLRRFVSAVKVREVVEIKPIYYRRFGAEVWRHSLQVAYLAAELATEDQDTAFMLGLIHDVGKIAIFQMLLEAFAKAEPGEQPRSWLFRQVMTSKSLILSAVLARSWLLPPLFSRSLAALANPDNMPTEPLPKAIWTANHISECSMLWQAARLKEPQLNELLARIGMDRKTFDPLHEKLILFTR	not soluble
MGSDKIHHHHHHMRLRELELFLDLLATKSLTQSAERLGMSQPNASHLLSKLEEKGGSKLFDRSGKRLLPLSSALFLEPRAKEIVRLWREAQEELLDQSSLCGELRIAATHTIGEYLLPEILFEFRQTHPKVHLQARIHNTAECLEALLGGEVEQAFIEGETEDNQGVMKRFLRRDELAVVTSDEGLAARARYIDELFDRPWILREKGSGMRDAFLREVVDVKESFPLFLELDRSEAIKRLIQSHGALGCLSLLSVQREIKEGRLFRVEIIGREFWRHFYEVRREGSLGRLAKVFGEFVSVRLSESD	not soluble
MGSDKIHHHHHHMRLRRLPVYVDAYKEKPNAEIFIYYSSRGTGKTYDIATVNLERKFSADGGDTLAIRKKKNKTTQSIHKEILELLSIYNLRKFFNISKAKIESKSLIFGKKRAFVFEGGHDTRDLKSYAHFKDLWLEEANQFSADDIEMLVPTMREQGGRIYMSSNPVPKSHWLYKRYLSNQDNPAVCIIKSTYRDNPFLNGGDVQAWLEKQRLAYHGNDIGFRIEVLGEEFDFGTARLIKKFNVCGPEILSRANGSYYTGIHVKGNRICFLEILVGRISYLPVVIITNACSKVLLSKTDYQSEINKFKGVFVLPTAREELKYVFSRFGRGTLLAKKRNLYSLSDYLIPSNLNVVNKPETTDVISEFNETEYYYDESSAEDSEVTNFVMQKDLVYIPAFLNAISVFS	not soluble
MGSDKIHHHHHHMRLTSREKEIFEVLKKEPLISQEELARRFNITRSSIAVHISNLMKKGVILGKGYVFNEQVSVVVIGESYYYIKTSGPDNDCSINMGLGGFAVDTGRIFANFGLNVKLITIVGNDEEGTNIFNELQGKGVDIVNIFRHAKKRSCRKVFLDDKRILEENFSLQDYEKAIDAREWVVFNCEWLVVDTRFQELLCHKAIGKDEEKLPFFCTCRYLYSIEEIPSFLSRYDLLVLGVADSNIMDHYLSQALALSSNGVQSVILSDGNTRLFYFQKGNAHEFPLLPNQCFDSQEGLPALLAGIVYGLSSGYSLRQAVRIAVGTAASND	not soluble
MGSDKIHHHHHHMRLVQYRMPDGSRRVGRVSDDDNHLHPLDKTGSVLELAEAAIAEDMSIASLVEKRTAAATIDYDALLRNGRVLAPVDHPEPARFLVTGTGLTHTGSAAARNQMHVLTHGDGAEESDSLKIFRMGLEGGKPGAGKIGIQPEWFFKGVGTCVVPPGAPLPMPAFAKAGAEEAEIVGLYLNGPDGHPYRIGYALGNEYSDHVTEGENYLYLAHSKLRSCSIGPELLIGDLPEEVRGHSRILRDGTVIWEQEFLSGEAHMSHSIANLEHFHFRYPMHRRAGDLHAYFFGAAVMSYASGIKTASGDEYEIQAQAFGKPLRNRMVSVPDEGLVTVTPL	not soluble
MGSDKIHHHHHHMRLYTRTGDKGKTSVIGGRLAKDDTRVVAYGTTDELNSFVGSAITQLDENTFADIRGELFKIQHELFDCGGDLAMLKVKEDRPYKAKQEIVDFLEQRIDAYIKEAPELERFILPGGSEAAASLHVCRTIARRAERYVVRLQQEGEINPIVLKYLNRLSDYFFAVARVVNSRLQVPDVEYERSAIVFREGKRKEDKK	soluble
MGSDKIHHHHHHMRNILEIVKFWFYDYDVTATEIKANVIKIHCNNKSYILKEKGSIKQLLVEINVLEQLEEKGVKAQKLVKTSNSEKYVVYKERYYCLYEYVVGSVLEIKDPENLKNLGSLIGEEIAKLHQALNSVNSNNELVKRELYKLVYEWALPNLEKNEHVDQDVVRTMNQIHSDFKKTITSLRKQIIHRDMHLSNVIFKDNEFQGFIDFELLERNVRVFDLCYCCTSILSELHSDEELRGKWQHIISKIFEGYNKQSILTREELQAIWYVMLSIQVIFITYFVQLPDLLKLNEEMFFWIFANKETIEELIERSVQI	not soluble
MGSDKIHHHHHHMRNYQIPNLFNLGDLETKKVLKAANQAHQALGELKGVVQTVPNQNILLGTLPLQEAKESSEIENIITTQDDLYQSNVATQQFTTIAAKEVHHYAQAVSFGFSEVRKTELITLNLIKQIQAKLEGNNAGFRKQIGTGLVNQRTGQVVYMPPQQPEMIEHYMSVLERFINDSEQIDYDPLVKMAIVHHQFESIHPFYDGNGRTGRIINILYLIQQNLLDTPILYLSRYINRNKDQYYYLLQFVRDHNDWEEWLIFMLNGIAETAKQTVDLINQIKKLMQEHKLLIRNQLPNIYSHELINNLYKYPYTKIDFIAEDCQVHRNTAGKRLEQLVDLGILKKVKIGKENFYINMELYYLLTK	not soluble
MGSDKIHHHHHHMRPDMFIGSYERSGGHGLYPAWLDSLGAISLGPPDTRIGNASFGLLDHRCGTAWFVEEQEPGAVSAWQWDDQVWTPLGRIGTGGASPCHLVRSPDGTLLAVANNDGGVAALVELDPETGALGKLAGVLRNEGGARSHAGCVRFAGDRIFIADRGLDRVLSCEYGAAGFGEVRTAFAAPRGSGPRQLLLRDDLALLACELTARLMLLRATGEGFELLDDIATDAAATPGNLAGHLAFQGDRIFVSNRGADTVASFRIDGERLRREDCWSSHGRSPRHFAMCGSYLVVTNEQDGIVCVLDIANGGRIAGTAIVPGAAFVLAMPL	not soluble
MGSDKIHHHHHHMRQLSINRLKEGDILGRTIYANDGRVLLGKGMALTKSYIDRLKTLGINILYIDDEVSKDIIVEDIISEEHRREAMASLDNAVQAVKVGKDFDGFNVKRNIDNIIQDILFQKDIFIGLTDMRTYDNQIFAHSVNVCVLSIVLGKALGLDRENLEGLAIGALFHDIGTVKLPKKLLSKREPFTPKEAALYQTHTNHGFDILRTKRELNLLSAHIAFQHHERLNGNGYPRKLEGDAIHQWAQIVGIANFYDNLVNDGPGHTRIPPYEACEILMGSAEKFFPKDLVITFLKHIAAYPTGCTVKLSTGETGIVVEQNKSLPMRPIIRVLVADQTLSRVQAKEYNLVEERTLFIESILE	not soluble
MGSDKIHHHHHHMRRKIPSTTALVSFEAAARHESFTKAAHELSLTQGAVCRQIGGLEEFLGIELFRRSRRGVKLTEAGLSYSRRVAQQLDAVERDTLSVMGEQGAHAIELAVVPTFGTQWLLPRLKDFQHKHPDVTVHLTNRTRPFLFADTDFDAAIYFGDADWSGTQSHRLMGENSLPVCSPSFLGGRGSLKASELAELPLLQQTTRPYAWRQWFNAQNLNVARDMTGPRYELFSMLAQAAMHDMGVALIPPFLILRELHEKRLVIASISALPSNKAYHLMIPERKVESASLTAFRDWLVNQAHDYSLPQDKEQALV	not soluble
MGSDKIHHHHHHMRRNQVAIVGAAETTKLGVIPDMSQIQLHADAALNAIADAGLKLSDIDGIATAVETPQQIAHYLGITPTWVDGTSVGGCSFMLHVRHAAAAIEAGLCKTVLITHAESGKSMIGKLPRSIPADSLQGQFEAPYGIYGPPSQFPIPVLRFMKTHGITHEQIASVAVVQREWAAKNPRAMMKDPITVADVLNSRMIAYPFRLLQCCLVTDGGGALIMTSADRAKDFPHKPVYVLGTGESVETPMVSQMETFNSSRAFKVAGPTAFREAGISHSDVDHLMIYDAFAHLPLFGLGDLGFMPYEETGKFIADGNTRPGGKLPLNTNGGGLSYMHSGMYGMYALQESVRQMRGIAPAQVPNAKISVCHGVGGMFAASGTIIFTNEK	not soluble
MGSDKIHHHHHHMRRQANSPSPDPVSTTRPVAWRPTLAKQKGETKHSALTERIIADIDAGVLKPMDRMPTHRDLARELGLSVQTVSLSYKEAERLGYLSGEIGRGTFVKTRVTERAGRMMLDHSPTEVLDLSIIRGVYLDDHENASRTILREMADSDNSGFMRPCRPVAGLDSHRETARTWLGMMGVTAGAERILVTNGAAHGIFLALSCIIRSNDVVLCENLTDHGIIGLSNILGFSLKGLPTDEEGILPDALEAACAAGGVRALVLIPTLNNPTGHVSGAARRQAIATIAERYGIFIIEDEVYRPMIEDDLPSITEMLPDLGFFVTSFTKTVLTGLRVGYLVVPPAYSIRAASILRVSSWSGTYLTAEIATRWVENGTARRLLDVQRTEARARQKIAVDILGDHIGSTHPLSFCAWLTVPPRWTEDGLVRALTNQNVAVTPSEPFIAGPGHGGGIRICLGGRLNHASLARALTTVRQTFEQLPPVYDIGSIG	not soluble
MGSDKIHHHHHHMRRRHVGVGAELTAFRILAAISCERLFWETGSRNQAVKTRAESANREISMIRTAMIAATALAASLAASAPAFAADVVGLWATPGNGGQVEISRCGNSLCGKLVTSDHIKTNPGLKDIKNKDESQRSRTLKNLQMLYDFSGGPTKWTGGKVYNPEDGGVYAGTIELVSTTELKLKGCVVAPLCKTQKWTRIR	not soluble
MGSDKIHHHHHHMRRRVPLNSVRAFEAAARRMSLVQASDELCVTPTAVSHQIRQLEDFLQTKLFLRRSSRLELTPESRACLAKLTEALDIIDDAIAALHKPMDMPERLVVGASASVGSLWLMPRLRNFYRTAPEIDISLTTFIERSAIETDTSDVWICNWHTNLDRRVELLLEEDIIPVCSPQMAEEFGELSFDSLRELPLVHVDRAKASINGQYPDWDRYLREYGISRNDIAKGPRFNQAGPAIEAAKAGMGALLGRSILIERALETGELIRLGDPYPIRNPYYLISPLQPASNAVKMFKDWIFAQAKTRTSTYVELPHKNRRGSDFRLTV	not soluble
